One data set deals with T1, K18 Tau (Homo sapiens, UniProt P10636).
T1 construct: K18 Tau was first expressed, collected, and purified; His tag (cleaved yes); made in house
The experiment in a line: Tau Kinetics Thioflavin T plate reader assay. The conditions noted are these: for PLP or Pep/Tau %: Avg P amplitude divided by Avg Tau amplitude x 100; for PLP or Pep 10 hr (average amplitude, fluorescent intensity readout, of the Tau trace treated with that compound) / PLP or Pep 15 hr (average amplitude) / PLP or Pep 20 hr (average amplitude): K18 Tau 10 μM, heparin, thioflavin T, PBS; for Avg P Amplitude: average of the amplitudes at 10, 15 and 20 hr; for % amp change: change in amplitude relative to control Tau. The data set is classed as biochemical. The protocol:
(§1) Tau Kinetics Thioflavin T Plate Reader Assay Protocol: First, controls and the effects of varying concentrations of K18 Tau were examined (FIG. 24). In FIG. 24, 1X Tau refers to 10 μM K18 Tau final concentration in the well with 100 μl total volume (i.e., 0.5× Tau refers to 5 μM K18 Tau and 2× Tau refers to 20 μM K18 Tau). Before PLPs were added to K18 Tau, the concentration at which the mimetic aggregative polymers would not activate Thioflavin T was evaluated. Based on the results depicted in FIG. 25, a PLP concentration of 1 μM was selected for further experimentations. […] Given the goal to investigate effects of the PLPs, it was determined that too high of a concentration could easily be adjusted, whereas too low of a concentration could result in a false negative with respect to impact.
PLPs incorporating SEQ ID: 4 (“TP4”), SEQ ID: 2 (“TP7”), or SEQ ID: 10 (“TP12”) as peptide sidechains were tested. The PLPs, K18 Tau (10 μM) and Thio T (Sigma) at a final concentration of 10 μM was added, and aggregation was induced by the addition of a freshly prepared heparin sodium salt solution (Santa Cruz) at a final concentration of 44 μg/ml. For non-induced controls, assay buffer was added in place of heparin solution to a final volume of 100 μl per well. Aggregation reactions were carried out at 37° C. with continuous shaking and monitored via ThT fluorescence (excitation, 444 nm; emission, 485 nm; cutoff, 480 nm) in a Spectramax M5 microplate reader (Molecular Devices). Readings were taken every 5 min for a minimum of 24 h.
Table C. Summary of results depicted in FIGS. 26, 28, and 29 in the event the graphical representations are difficult to ascertain. Values are rounded to the nearest whole number. Tau 10 hr refers to the average amplitude (fluorescent intensity readout) of an n=6 of the control Tau (meaning no peptide or polymer added, just heparin, thioflavin T, and PBS) trace at 10 hour. The same applies to Tau 15 hr and Tau 20 hr. Avg Tau amplitude refers to the average of the amplitudes at 10, 15, and 20 hr in the previous columns. As Tau is the control for each individual plate, and these readings were done on three separate plates, there are 3 different sets of average amplitudes. Similar to the aforementioned, PLP or Pep 10 hr refers to the average amplitude (n=6 for PLP and n=3 for peptide) of the Tau trace treated with that compound at 10 hours. Avg P amplitude refers to the average of the amplitude at the 3 times, or the average of the 3 previous columns. PLP or Pep/Tau % is the result of dividing the Avg P amplitude by Avg Tau amplitude and multiplying by 100. % amp change refers to the change in amplitude given by subtracting Tau average amplitude from P average amplitude and dividing by Tau average amplitude and multiplying by 100.

The next data set is described as follows: Circular dichroism. The data set is classed as physicochemical. To be noted: 37° C.; for CD conformation of free peptides: before and after addition of heparin; for CD conformation of PLPs: Tris buffer pH 7.4. The protocol:
The proteomimetic similarities were further investigated using circular dichroism. Samples tested included K18 Tau, PLPs having SEQ ID: 4, SEQ ID: 2, and SEQ ID: 10, as well as said PLPs with K18 Tau. Each of these samples were dissolved in Tris buffer (10 mM Tris, 50 mM NaF, 0.5 mM dithiothreitol) and pH was adjusted to 7.4. Samples were tested with and without the addition of heparin. For samples containing heparin, samples were incubated in the presence of 10 μM heparin sodium salt for 24 hours. Polymers and peptides were run at 37° C., at a concentration of 3 mg/10 ml and K18 Tau was run at 10 uM. Parameters were: 1 mm quartz cuvette, continuous scan at 10 nm/min over 260 to 200 nm, 3 acquisitions averaged for one trace.

Data set [1] is described as follows: Concentration dependence of polymer activation of Thioflavin T (no Tau). To be noted: 1 μM PLP, no Tau (FIG. 25).
Source text: FIG. 25: Concentration dependence of polymer activation of Thioflavin T. TP4: PLP homopolymer incorporating SEQ ID: 4 as peptide sidechains. TP7: PLP homopolymer incorporating SEQ ID: 2 as peptide sidechains. TP4 and TP7 controls: PLP homopolymer, thioflavin T, no heparin, and PBS. The remainder of controls were at baseline and were removed from this FIG. 25 to improve readability. ThioT control: no Tau, no heparin, thioflavin T and PBS. ThioT heparin control: no Tau, no PLPs, thioflavin T, heparin, and PBS. n=3.
as §1

The subject of data set [2] is Mouse striatal cells HdhQ7/7. The experiment in a line: Cell permeability assay with rhodamine labeled PLPs (confocal imaging). The data set is classed as cell-based. The conditions noted are these: incubated with the cells for 24 hours. The protocol:
Mouse striatal cells HdhQ7/7 from Coriell Institute were plated in 4-chamber 35 mm round glass-bottom dishes at a density of 50,000 per well. Cells were incubated for 24 hours in a 5% CO2 atmosphere at 33° C. Rhodamine labeled PLPs, rhodamine dye, and vehicle control in 10% FBS DMEM medium without phenol red were incubated with the cells for 24 hours, respectively. The cell nuclei (stained with Hoechst) were accomplished using a 405 nm laser with a 15% laser power. The cell membrane (stained with Wheat Germ Agglutinin, Alexa Fluor 488 Conjugate) was accomplished using a 488 nm laser with a 12% laser power. Cell imaging for Rhodamine fluorescence was accomplished using a 581 nm laser with an 8% laser power.

Data set [3] in a line: Liquid-liquid phase separation (LLPS) of rhodamine labeled PLPs. The data set is classed as physicochemical. On the procedure:
Solutions were dissolved in HEPES buffer: 10 mM HEPES buffer (pH 7.4) with 0.1 mM EDTA and 2 mM DTT, Media buffer: Dulbecco Modified Eagles Medium (high glucose) with 2 mM L-glutamine with 10% Fetal Bovine Serum, 1% Penicillin/Streptomycin, or water. Different crowding agents were also tested using HEPES buffer—PEG and heparin. For heparin, stock solutions of 10 μM of each rhodamine labeled PLP (using either SEQ ID: 4 or SEQ ID: 7 as peptide monomers) and 30 μM of heparin sodium salt were prepared in buffer and kept refrigerated. Before experiments, solutions were given at least 30 min to come to room temperature and experiments were carried out at room temperature. In the microscope room, 20 μL of PLP was added to 5 μL of heparin and mixed gently in a microcentrifuge tube. 5 μL of solution was immediately pipetted onto Fisherbrand glass microscope slides and coverslip applied. All reactions were visualized on Olympus BX53 Fluorescent Microscope using the 581 nm laser to monitor the rhodamine, as well as brightfield. LLPS occurred within 60 min of initiation.

Data set [4] in a line: STEM / dry state TEM of PLP homopolymers. The data set is classed as physicochemical. The conditions noted are these: prepared in H2O. On the procedure: Using standard STEM protocols, PLPs having SEQ ID: 2 or SEQ ID: 4 as peptide monomers were prepared in H2O and visualized. […] Further, from the results depicted in FIG. 17, the homopolymer the beta sheet forming nature was confirmed. After putting the PLPs in HEPES LLPS buffer and heating to 37° C. (i.e., body temperature), a time course established the fibrilization of the polymer on dry state TEM. The same fibrilization was seen on purified K18 Tau protein 24 hours after incubation with heparin in PBS as depicted in FIG. 19. The remarkably similar characteristics was a testament to the mimetic capabilities of the PLP.

T1 sequence (P10636 561-685 limits assumed): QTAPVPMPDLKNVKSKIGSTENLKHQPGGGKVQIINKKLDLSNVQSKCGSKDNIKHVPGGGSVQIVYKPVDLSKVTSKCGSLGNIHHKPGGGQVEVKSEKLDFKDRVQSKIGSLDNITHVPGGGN

On to DRVQIVYKRR [P7], for which, in the data set with K18 Tau (1 μM PLP/Pep), the “PLP or Pep/Tau %” value was 135%; the “PLP or Pep 10 hr (average amplitude, fluorescent intensity readout, of the Tau trace treated with that compound)” value (from here on “PLP or Pep 10 hr”) is on record as 417; the “PLP or Pep 15 hr (average amplitude)” value is given as 411; the “PLP or Pep 20 hr (average amplitude)” value was found to be 545. Further, in the data set with K18 Tau (1 μM PLP/Pep), the “Avg P Amplitude” value is 458 and the “% amp change” value is reported as 11%. In the data set with K18 Tau (10 μM PLP/Pep), the “PLP or Pep/Tau %” value is reported as 126%; the “PLP or Pep 10 hr” value worked out at 395; the “PLP or Pep 15 hr (average amplitude)” value was 448; the “PLP or Pep 20 hr (average amplitude)” value stood at 438. Also, in the data set with K18 Tau (10 μM PLP/Pep), the “Avg P Amplitude” value is 427 and the “% amp change” value worked out at 4%. Besides, in “Circular dichroism”, the “CD conformation of free peptides” value was “beta sheet formation”.
Regarding “TP4: PLP generated from peptide monomers characterized by SEQ ID: 4 (VQIINKRR)”, in the data set with K18 Tau (1 μM PLP/Pep), the “PLP or Pep/Tau %” value stood at 143%; the “PLP or Pep 10 hr” value is 730; the “PLP or Pep 15 hr (average amplitude)” value came out at 936; the “PLP or Pep 20 hr (average amplitude)” value is reported as 961. In addition, in the data set with K18 Tau (1 μM PLP/Pep), the “Avg P Amplitude” value was determined as 876 and the “% amp change” value was 44%. In data set [1], the “Thioflavin T signal of the polymer” value is reported as “significant signal”. Also, the “Capability to permeate the striatal cells” value in data set [2] is on record as “demonstrated the capability to permeate the striatal cells”. The Liquid-liquid phase separation entry in data set [3] (HEPES buffer with PEG as crowding agent) is reported as “induce LLPS phase condensates”. Moreover, the Liquid-liquid phase separation result in data set [3] (HEPES buffer with heparin, room temperature) is reported as “capable of liquid-liquid phase separation”. Besides, in “Circular dichroism” (after addition of heparin), the “CD conformation of PLPs” value is on record as “beta sheet formation”. Besides, the “CD conformation of PLPs” value in “Circular dichroism” (before heparin was added) is on record as “random coil formations”. In addition, the “Conformation by STEM” value in data set [4] was “beta sheet conformations”.
With “TP12: PLP generated from peptide monomers characterized by SEQ ID: 10 (VQPINK)”, in the data set with K18 Tau (1 μM PLP/Pep), the “PLP or Pep/Tau %” value is listed as 34%; the “PLP or Pep 10 hr” value was determined as 116; the “PLP or Pep 15 hr (average amplitude)” value is recorded as 129; the “PLP or Pep 20 hr (average amplitude)” value came to 143. In the data set with K18 Tau (1 μM PLP/Pep), the “Avg P Amplitude” value is listed as 129 and the “% amp change” value is −69%. In the data set with K18 Tau (10 μM PLP/Pep), the “PLP or Pep/Tau %” value came out at 9%; the “PLP or Pep 10 hr” value is recorded as 36; the “PLP or Pep 15 hr (average amplitude)” value is given as 37; the “PLP or Pep 20 hr (average amplitude)” value worked out at 36. Moreover, in the data set with K18 Tau (10 μM PLP/Pep), the “Avg P Amplitude” value is given as 36 and the “% amp change” value is −91%. Also, the “Effect of inhibitor polymer on fibril formation of K18 Tau” value with K18 Tau (two concentrations, 1 μM and 10 μM, with heparin (FIG. 29)) is listed as “significantly prevented fibril formation of K18 Tau”. In addition, the “CD conformation of PLPs” value in the data set “Circular dichroism” (after addition of heparin) is given as “beta sheet formation”. The “CD conformation of PLPs” value in “Circular dichroism” (before heparin was added) was “random coil formations”.
Take VQIINKRR [P4]: in the data set with K18 Tau (1 μM PLP/Pep), the “PLP or Pep/Tau %” value is 177%; the “PLP or Pep 10 hr” value is recorded as 588; the “PLP or Pep 15 hr (average amplitude)” value amounted to 558; the “PLP or Pep 20 hr (average amplitude)” value is on record as 657. In the data set with K18 Tau (1 μM PLP/Pep), the “Avg P Amplitude” value turned out to be 601 and the “% amp change” value was 46%. For the same substance, in the data set with K18 Tau (10 μM PLP/Pep), the “PLP or Pep/Tau %” value is recorded as 129%; the “PLP or Pep 10 hr” value is on record as 417; the “PLP or Pep 15 hr (average amplitude)” value stood at 497; the “PLP or Pep 20 hr (average amplitude)” value was found to be 395. Further, in the data set with K18 Tau (10 μM PLP/Pep), the “Avg P Amplitude” value is on record as 436 and the “% amp change” value was determined as 6%. Further, the “CD conformation of free peptides” value in “Circular dichroism” was “beta sheet formation”.
Turning to VQPINK [P12], in the data set with K18 Tau (1 μM PLP/Pep), the “PLP or Pep/Tau %” value worked out at 182%; the “PLP or Pep 10 hr” value is recorded as 605; the “PLP or Pep 15 hr (average amplitude)” value is given as 555; the “PLP or Pep 20 hr (average amplitude)” value is 693. Also, in the data set with K18 Tau (1 μM PLP/Pep), the “Avg P Amplitude” value stood at 618 and the “% amp change” value was 50%. In addition, in the data set with K18 Tau (10 μM PLP/Pep), the “PLP or Pep/Tau %” value stood at 140%; the “PLP or Pep 10 hr” value was 584; the “PLP or Pep 15 hr (average amplitude)” value is 413; the “PLP or Pep 20 hr (average amplitude)” value is 424. Further, in the data set with K18 Tau (10 μM PLP/Pep), the “Avg P Amplitude” value was determined as 474 and the “% amp change” value worked out at 15%. Also, the “CD conformation of free peptides” value in “Circular dichroism” is listed as “beta sheet formation”.

(Values after patent publication US20250360220A1, “REGULATION OF TAU USING PROTEIN-LIKE POLYMERS AND USES THEREOF” (NORTHWESTERN UNIVERSITY, priority 2022, published 2025).)
